In patent US20190092852A1 (Genentech, published 2019):
Substitutions are numbered along the chain they refer to. Several values for one entry are separate records, joined by “and”; a condition that tells them apart may be missing. Equal entries are not always repeated.

T1: human IL-33 (Genentech, huIL33.his) (human, UniProt O95760 112-270)
T1 sequence (looked up): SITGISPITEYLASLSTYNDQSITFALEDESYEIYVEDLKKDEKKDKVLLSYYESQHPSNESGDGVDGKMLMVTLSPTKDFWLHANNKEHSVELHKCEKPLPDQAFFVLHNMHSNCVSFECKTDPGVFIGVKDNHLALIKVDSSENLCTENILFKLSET

T2: cyno IL-33 (construct not stated) (cynomolgus monkey, UniProt A0A2K5W3I1 112-269)
T2 construct: also called cynomolgus IL-33; cyno IL-33 (Genentech)
T2 sequence: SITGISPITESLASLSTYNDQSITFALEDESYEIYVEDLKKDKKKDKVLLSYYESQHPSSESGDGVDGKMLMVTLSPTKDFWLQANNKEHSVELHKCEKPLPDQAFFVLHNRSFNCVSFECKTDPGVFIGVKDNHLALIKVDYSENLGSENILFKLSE

T3: human IL-33 (cell-based blocking assay of Example 2) (human, UniProt O95760 112-270)
T3 sequence (looked up): T1 sequence (looked up)

T4: cyno IL-33 (cell-based blocking assay of Example 2) (cynomolgus monkey, UniProt A0A2K5W3I1 95-269)
T4 sequence: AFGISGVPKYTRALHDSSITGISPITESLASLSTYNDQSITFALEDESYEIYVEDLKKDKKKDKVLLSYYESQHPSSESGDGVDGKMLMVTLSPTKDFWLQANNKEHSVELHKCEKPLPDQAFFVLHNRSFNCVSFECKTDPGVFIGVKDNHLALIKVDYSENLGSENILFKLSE

T5: cyno IL-33 N-His (cynomolgus monkey)
T5 chain: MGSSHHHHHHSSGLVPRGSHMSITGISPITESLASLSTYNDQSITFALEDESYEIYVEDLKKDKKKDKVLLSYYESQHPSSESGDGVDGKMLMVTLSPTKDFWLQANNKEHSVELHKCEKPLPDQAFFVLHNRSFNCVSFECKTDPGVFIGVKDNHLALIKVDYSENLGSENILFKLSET

T6: cynomolgus monkey N-terminal 6-His-tagged and C-terminal Avi-tagged IL-33 (S112-T270) (cynomolgus monkey)
T6 chain: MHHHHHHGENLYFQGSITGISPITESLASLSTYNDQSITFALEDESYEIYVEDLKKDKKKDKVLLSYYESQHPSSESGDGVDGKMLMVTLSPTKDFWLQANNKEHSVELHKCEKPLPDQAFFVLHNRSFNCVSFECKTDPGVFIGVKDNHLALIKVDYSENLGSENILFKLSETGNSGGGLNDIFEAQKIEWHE

T7: biotinylated cyno IL-33 (cynomolgus monkey, UniProt A0A2K5W3I1 112-269, biotin-labeled with EZ-LINK NHS-PEG4-Biotin)
T7 construct: also called biotin-cyIL-33
T7 sequence: T2 sequence

B1: 2B6 (antibody, V domains shown)
VH: EVLLQQSGPELVKPGASVKISCNASGYTFSDYNMNWVKQSHGKSLESIGDINPKNGDTFYNQNFKDKATLTIDKSSSTVYMELRSLTSEDTAMYYCARHYYYGSSYGGFVYWGQGTLVTVAA
VL: DIQMNQSPSSLSASLGDTITITCHASQNINVWLSWYQQKAGNNPKLLIYAASKLHTGVPSRFTGSGSGTLFTLTISSLQPEDIATYYCQQGQSYPLTFGSGTNLELK
notes: Murine hybridoma clone (Balb/C)
B2: 101.B11 (antibody, V domains shown)
VH: QVQLVQSGGGLVQPGGSLKLSCAASGFTFSGSAMHWVRQASGKGLEWVGRIRSRNNNYATAYAASVKGRFTISRDDSKRTTYLQMNSLKTEDTAVYYCTRLQQPPFDYWGQGTLVTVSS
VL: DIQMTQSPSSLSASVGDRVTITCRASQGIRNDLDWYQQKPGKAPKRLIYAASSLQSGVPSRFNGSGSGTEFTLTISSLQPEDFATYYCLQHDSYPLTFGGGTKVEIK
notes: Transgenic mouse / phage display
B3: 4G12.FW4 (antibody, V domains shown)
VH: ELQLQESGPGLVKPSETLSLTCTVSGGSIRSSIFYWGWIRQPPGKGLEWIGSIYYSGRTYYNPSLKSRVTISVDTSKNQFSLMLTSVTAADTAVYYCARAGGLYNWNDESFSFYMDVWGQGTTVTVSS
VL: EIVLTQSPGTLSLSPGERATLSCRASQSFSSSYLAWYQQKPGQAPRLLIYGASSRATGIPDRFSGSGSGTDFTLTISRLEPEDFAVYYCQQYDRSPLTFGGGTKVEIK
notes: Derivative of 4G12
B4: 9F6 (antibody, V domains shown)
VH: QVQLQQSGNDLVKPGASVKLSCKASGYTFTSYWINWIKQRPGQGLEWIGRIAPGSGFISYNELFKDKATLTVDTSSSTAYIQLGSLSSEDSAVYFCAREFYYGSFYGGFAYWGQGTLVTVSA
VL: DIQMNQSPSSLSASLGDTITITCHASQNIHVWLSWYQQKPGNIPKLLIYKASTLHTGVPSRFNGSGSGTGFTLTISSLQPEDIATYYCQQGQSSPLTFGAGTKLEVK
notes: as for B1
B5: H4H9662P (antibody, V domains shown)
VH: EVQLVESGGGLVQPGGSLRLSCAASGFTFSSYALTWVRQAPGKGLEWVSFISGSGGRPFYADSVKGRFTISRDNSKNMLYLQMNSLRAEDTAIYYCAKSLYTTSWYGGFDSWGQGTLVTVSS
VL: DIQMTQSPSSVSASVGDRVTITCRASQGVVSWLAWYQQKPGKAPKLLIYAASSLQSGVPSRFSGSGSGTDFTLTISSLQPEDFATYYCQQSNSFPFTLGPGTKVDIK
B6: H4H9671P (antibody, V domains shown)
VH: EVQLVESGGGLVQPGGSLRLSCAASGFTLRSYFMTWVRQVPGKGLEGVSAISGISGGTYYTDSVKGRFTISRDNSKNTLFLQMNSLRAEDTAVYFCARTVYSSSYYGGFQHWGQGTLVTVSS
VL: B5 VL with A13V, V29I, V30S, A50V, S91T, F96L, L98F, P100G, D105E
B7: H4H9665P (antibody, V domains shown)
VH: EVQLVESGGGLVQPGGSLRLSCAASGFTFSNYAMTWVRQAPGKGLEWVSTISGSGDNTYYADSVQGRFTISRGHSKNTLYLQMNSLRAEDTAVYYCAKPTYSRSWYGAFDFWGQGTMVTVSS
VL: B5 VL with V29I, V30S, K45Q, S53R, S63W, S91A, S93N, L98F
B8: H4H9663P (antibody, V domains shown)
VH: QVQLVQSGAEVKKPGASVKVSCKASGYTFTGHYMYWMRQAPGQGLEWMGWINPNSGGTNYAQKFQDRVTMTRDTSISTAYMELSRLRSDDTAVYYCARGRYGSSWYGGFEYWGQGTLVTVSS
VL: DIQMTQSPSSVSASVGDRVTITCRASQGITSWLAWYQQKPGKAPNLLIYAAASLQSGVPSRFSGSGSGTDFTLTISSLQPEDFTTYYCQQAYSLPLTFGGGTKVEIK

Columns and labels:
[1] = target: T1, human IL-33 (Genentech, huIL33.his); experiment: SPR Biacore
[2] = target: T2, cyno IL-33 (construct not stated); experiment: SPR Biacore
[3] = target: T3, human IL-33 (cell-based blocking assay …); experiment: cell-based or functional assay
[4] = target: T4, cyno IL-33 (cell-based blocking assay …); experiment: cell-based or functional assay
cyno IL-33 N-His [5] = target: T5, cyno IL-33 N-His; experiment: SPR Biacore T200, 25 C
Protocol: (§1) The binding kinetics of the anti-IL-33 antibody 10C12.38.H6.87Y.58I IgG4 and each anti-IL-33 antibody listed in Table 5 (RG1-RG20) to IL-33 were measured using surface plasmon resonance (SPR) on a BIACORE® T200 instrument (GE Healthcare). Anti-human Fc or anti-murine Fc (GE Healthcare, #BR-1008-39 or BR-1008-38, respectively) was immobilized on a CM5 sensor chip via amine-based coupling according to the manufacturer's protocol. Surfaces were used to capture monoclonal human IgG4 and monoclonal murine IgGs for kinetic studies. Antibody binding was measured to human IL-33 (R&D systems, #3625-IL-010/CF) and cyno IL-33 N-His (SEQ ID NO: 317) (Genentech, Inc.). A three-fold concentration series of cytokine with a range of 3.7 to 100 nM was used for the experiments. Sensograms for binding of IL-33 were recorded using an injection time of 4 min with a flow rate of 30 μl/minute with a running buffer of 0.01 M N-(2-Acetamido)iminodiacetic acid (ADA) pH 7.4, 0.15 M NaCl, 3 mM EDTA, and 0.05% TWEEN®-20. After injection, disassociation of the ligand from the antibody was monitored for 10 min in running buffer. The surface was regenerated in between cycles with an injection of 3 M magnesium chloride or Glycine-HCl pH 1.7. All binding experiments were performed at a temperature of 25′C and 37° C. After subtraction of a blank which contained running buffer only, sensograms observed for IL-33 binding to anti-IL-33 antibodies were analyzed using a 1:1 Langmuir binding model with software supplied by the manufacturer to calculate the kinetics and binding constants, including the dissociation constant (KD). Dissociative half-lives (t_{1/2}) were calculated from the kinetic rate constants. KD (M)=koff/kₒₙ and t_{1/2} (min)=ln(2)/(60*koff). […] In Tables 6-9, *IC indicates the result is inconclusive due to weak capture of antibody was observed, leading to poor binding data.

cyno IL-33 N-His [6] = target: T5, cyno IL-33 N-His; experiment: SPR Biacore T200, 37 C
Protocol: as §1

[7] = target: T6, cynomolgus monkey N-terminal …; experiment: cell-based or functional assay
biotinylated cyno IL-33 = target: T7, biotinylated cyno IL-33; experiment: competitive ELISA, biotin-cyIL-33 to coated hST2-Fc
Protocol: The ability of the anti-IL-33 antibody 10C12.38.H6.87Y.58I IgG4 and each anti-IL-33 antibody listed in Table 5 (RG1-RG20) to block either human IL-33 or cyno IL-33 binding to human ST2 receptor was tested in a competitive binding ELISA. Briefly, 1 μg/ml of recombinant human ST2-Fc chimera protein prepared in coating buffer (50 mM sodium carbonate, pH 9.6) was coated on a 384-well MAXISORP® plate (Nalgene Nunc International; Rochester, N.Y.) and incubated overnight at 4° C. On the next day, non-specific binding was blocked with PBS containing 0.5% (w/v) solution of bovine serum albumin (BSA). Fixed concentrations of biotinylated human or cyno IL-33 prepared in assay buffer (25 mM PBS, pH 7.2, 0.1% BSA, 0.05% TWEEN®-20) were mixed with an equal volume of serially-diluted anti-IL-33 antibodies or assay buffer alone and incubated for 1 h at room temperature. The final assay concentrations of biotinylated human IL-33 or cyno IL-33 were 20 pM and 45 pM, respectively, and the final assay concentration of each antibody ranged from 0-300 nM. The pre-mixed solutions were added to the ST2-Fc coated plate and incubated for 1 h at room temperature. The binding of biotinylated IL-33 to coated ST2-Fc was detected by the sequential addition of Streptavidin Poly-HRP80 (Fitzgerald; Buckinghamshire, UK) and 3,3′,5,5′-tetramethyl benzidine (TMB) Microwell Peroxidase Substrate System (KPL; Gaithersburg, Md.). The absorbance (450 nm) was recorded using a […] ASCENT® plate reader (Thermo Scientific; Rockford, Ill.). The binding activity (%) of biotin-IL-33 to ST2 in the presence of anti-IL-33 was plotted as a function of antibody concentration. The data generated were fitted to a four-parameter equation to determine IC₅₀ values for each antibody (FIGS. 25A and 25B) using Prism software (Graphpad Software; La Jolla, Calif.). The maximum blocking (%) of each antibody was calculated as the ratio of the reduction in signal measured in the presence of antibody relative to the difference between the signal with IL-33 alone and background measurements.

| Binder | Kd [1] [nM] | Kd [2] [nM] | Cell assay (hu) IC90 [3] | Cell assay (cy) IC90 [4] | Kd (cyno IL-33 N-His [5]) [nM] | koff (cyno IL-33 N-His [5]) [s⁻¹] | kon (cyno IL-33 N-His [5]) [M⁻¹ s⁻¹] | t1/2 (cyno IL-33 N-His [5]) [min] | Kd (cyno IL-33 N-His [6]) [nM] | koff (cyno IL-33 N-His [6]) [s⁻¹] | kon (cyno IL-33 N-His [6]) [M⁻¹ s⁻¹] | t1/2 (cyno IL-33 N-His [6]) [min] | IC50; SEAP reporter (OD 620), HEK-BLUE IL-33/IL-1beta cells, 5 pM cyno IL-33 (5pM cIL-33-Nhis) [7] [M] | IC50 (biotinylated cyno IL-33) [nM] | Maximum Blocking (biotinylated cyno IL-33) [%] |
| --- | --- | --- | --- | --- | --- | --- | --- | --- | --- | --- | --- | --- | --- | --- | --- |
| B1 | 0.03 | 0.33 | 0.02 µg/mL and 0.13 nM | 0.526 µg/mL and 3.47 nM |  |  |  |  |  |  |  |  |  |  |  |
| B2 | 0.527 | 0.783 | 0.3 µg/mL |  |  |  |  |  |  |  |  |  |  |  |  |
| B3 | 0.038 | 0.07 | 0.17 µg/mL and 1.12 nM | 0.034 µg/mL and 0.224 nM |  |  |  |  |  |  |  |  |  |  |  |
| B4 | 0.07 | 0.91 | 0.011 µg/mL and 0.73 nM | > 1.5 µg/mL and > 9.9 nM |  |  |  |  |  |  |  |  |  |  |  |
| B5 |  |  |  |  | 1.28 | 0.000313 | 245000 | 37 | 2.31 | 0.00112 | 484000 | 10 | 3.4e-08 | 66 | 47 |
| B6 |  |  |  |  | 1.72 | 0.000915 | 533000 | 13 | 3.66 | 0.00326 | 890000 | 4 | 5e-08 | 70 | 40 |
| B7 |  |  |  |  | 0.976 | 0.000426 | 437000 | 27 | 1.96 | 0.00142 | 727000 | 8 | 1.1e-08 | 19 | 53 |
| B8 |  |  |  |  | 1.07 | 0.000545 | 511000 | 21 | 1.03 | 0.00202 | 1.96e+06 | 6 | 2.3e-08 | 26 | 61 |
